Our source for the Kd values is US20230322944A1 (published 2023).

Numbering of substitutions follows the chain as printed.

One test has as its target T1, human CD122 His tagged (human, UniProt P14784 27-240).
T1 construct: also called hCD122
T1 sequence: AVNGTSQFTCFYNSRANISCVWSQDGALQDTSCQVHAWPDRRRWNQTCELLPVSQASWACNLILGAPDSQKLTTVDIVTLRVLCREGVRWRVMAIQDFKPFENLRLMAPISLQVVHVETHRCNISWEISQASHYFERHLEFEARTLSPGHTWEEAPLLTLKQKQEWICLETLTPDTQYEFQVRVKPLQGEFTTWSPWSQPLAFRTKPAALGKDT
The test is described as follows: BIACORE SPR, Fab on human CD122. Here is the method: (§1) A mouse anti-human antibody (CH1 specific) was immobilized on a CMS Sensor Chip to a level of 2000 RU in acetate buffer at pH 4.5 using amine coupling following the Wizard instructions for two channels. One channel was used for background signal correction. The standard running buffer HBS-EP pH 7.4 was used. Regeneration was performed with a single injection of 10 μl of 10 mM Glycine at pH 1.5 at 20 μl/minute. IgG samples were injected for 2 minutes at 50 nM at 30 μl/min followed by and off-rate of 60 seconds. The monomeric antigen (human CD122 His tagged or cynomolgus and/or rhesus monkey CD122 His tag) was injected in two fold serial dilutions from 100 nM down to 3.1 nM, for 2 minutes at 30 μl/min followed by an off-rate of 300 seconds. The obtained sensorgrams were analyzed using the BIACORE® 3000 evaluation (BIAevaluation) software. The KD was calculated by simultaneous fitting of the association and dissociation phases to a 1:1 Langmuir binding model.

For test [1], the target named is T2, cynomolgus and/or rhesus monkey CD122 His tag (rhesus monkey, UniProt Q38J85 27-240 (cynomolgus entry)).
T2 construct: also called rhesus CD122; rhCD122
T2 sequence: T1 sequence with Q7R, A66T, T74A, L83M, V92M, E127K, L158M
The test is described as follows: BIACORE SPR, Fab on rhesus CD122. Here is the method:
as §1

B1: FAB03 (Fab, V domains shown)
VH: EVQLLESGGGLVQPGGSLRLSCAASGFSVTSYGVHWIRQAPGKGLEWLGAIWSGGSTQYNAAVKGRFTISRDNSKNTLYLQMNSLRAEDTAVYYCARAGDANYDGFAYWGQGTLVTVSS
VL: DIQMTQSPSSLSASVGDRVTITCQASSSVSFMYWYQQRPGKAPRLLIYDTSNLASGVPSRFSGSGSGTSYTFTISSLQPEDIATYYCQQWDTYPLTFGQGTKVEIK
notes: F11VH-1 + F11VK-123; Human monovalent Fab
As for B1, the values for the Kd (in the test with human CD122 His tagged; in test [1]) were 38.6 nM and 20.6 nM, respectively.

B2: FAB09 (Fab, V domains shown)
VH: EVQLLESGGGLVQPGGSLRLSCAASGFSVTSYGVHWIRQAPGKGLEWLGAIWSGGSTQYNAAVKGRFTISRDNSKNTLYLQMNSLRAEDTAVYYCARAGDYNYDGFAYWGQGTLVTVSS
VL: B1 VL
notes: F11VH-13 + F11VK-123; Human monovalent Fab
With B2, the dissociation constant (Kd) is 72.5 nM with human CD122 His tagged and 36.5 nM in test [1].

B3: FAB12 (Fab, V domains shown)
VH: EVQLLESGGGLVQPGGSLRLSCAASGFTVTSYAVHWVRQAPGKGLEWLGVIWSGGSTDYNAAFISRLTISKDNSKNTVYFQMNSLRAEDTAVYYCARAGDYNYDGFAYWGQGTLVTVSS
VL: B1 VL
notes: F11VH-23 + F11VK-123; Human monovalent Fab
With B3, the Kd is 21.8 nM with human CD122 His tagged and 19.5 nM in test [1].
